Source: patent publication US9550817B2, “Men1 gene for diagnosis and treatment of diabetes” (THE TRUSTEES OF THE UNIVERSITY OF PENNSYLVANIA, priority 2006, dated 2017)

Molecular target: T1, menin (Homo sapiens, UniProt O00255)
T1 construct: made in house; host or cells: E. coli
T1 sequence (O00255 1-610): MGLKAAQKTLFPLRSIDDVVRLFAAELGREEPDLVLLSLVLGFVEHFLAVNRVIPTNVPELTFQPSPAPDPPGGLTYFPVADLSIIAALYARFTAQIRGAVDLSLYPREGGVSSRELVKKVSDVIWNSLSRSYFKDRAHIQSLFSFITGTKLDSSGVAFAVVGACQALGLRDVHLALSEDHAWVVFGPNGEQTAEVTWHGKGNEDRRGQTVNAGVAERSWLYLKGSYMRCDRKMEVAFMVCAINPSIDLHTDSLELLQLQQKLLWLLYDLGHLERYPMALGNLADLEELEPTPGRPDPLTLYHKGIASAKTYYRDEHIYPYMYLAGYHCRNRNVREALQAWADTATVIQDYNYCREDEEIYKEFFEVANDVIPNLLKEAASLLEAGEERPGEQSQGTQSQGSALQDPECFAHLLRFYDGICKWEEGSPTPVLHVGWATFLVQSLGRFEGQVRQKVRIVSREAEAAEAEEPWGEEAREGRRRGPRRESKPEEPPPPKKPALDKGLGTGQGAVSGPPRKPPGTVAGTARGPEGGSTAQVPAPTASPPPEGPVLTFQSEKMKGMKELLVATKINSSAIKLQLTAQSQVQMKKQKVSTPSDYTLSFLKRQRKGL
Assay: Pull-down of menin by biotinylated peptides on streptavidin-agarose beads, Western blot with anti-menin antibody
Assay type: binding
Conditions: menin expressed in and purified from E. coli
Experimental: Biotinylated peptides were synthesized at the Peptide synthesis facility at Yale University, and loaded to streptavidin-agraose beads (Invitrogen, Inc), and incubated with menin expressed in and purified from E. coli. After multiple washings, the beads were analyzed via Western blot analysis using an anti-menin antibody.
Biotinylated peptides were synthesized, loaded to streptavidin-agraose beads (Invitrogen Inc), and incubated with menin expressed in and purified from E. coli. After multiple washings, the beads were analyzed via Western blot analysis using an anti-menin antibody. […] Especially, the peptide designated the sequence […] (SEQ ID No. 7).

## MAHSCRWRFPGSGSCRWRFP (Human) [SEQ ID No. 7, short synthetic peptide from the N-terminus of MLL]
  binding of peptide to menin in vitro (FIG. 12): able to react with Men1
